The source of these data is PMC6113214, “Outer membrane lipoprotein RlpA is a novel periplasmic interaction partner of the cell division protein FtsK in Escherichia coli” (Scientific Reports, 2018).

This test addresses T1, FtsZ (E. coli, UniProt P0A9A6 1-383).
T1 construct: FtsZ, tubulin homologue of the Z-ring; the species is told only of the protein in general; also called purified FtsZ
T1 sequence (looked up): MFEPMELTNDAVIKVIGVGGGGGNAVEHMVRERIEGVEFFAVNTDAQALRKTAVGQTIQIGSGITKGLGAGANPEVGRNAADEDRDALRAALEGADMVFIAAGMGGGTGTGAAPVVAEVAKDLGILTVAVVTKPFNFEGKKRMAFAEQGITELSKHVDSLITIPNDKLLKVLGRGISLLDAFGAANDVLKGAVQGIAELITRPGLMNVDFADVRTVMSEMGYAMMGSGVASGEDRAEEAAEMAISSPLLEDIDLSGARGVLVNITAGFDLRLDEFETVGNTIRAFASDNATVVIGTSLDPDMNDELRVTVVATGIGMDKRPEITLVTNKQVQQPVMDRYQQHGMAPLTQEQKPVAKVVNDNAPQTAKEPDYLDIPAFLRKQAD
Briefly: pull-down; His10-FtsKN bound to 100 uL Ni2+ IMAC resin (bait); 320 ug purified FLAG-RlpA or 250 ug purified FtsZ (prey); 4 C overnight; three washes in 20 mM Tris-HCl pH 7.0, 100 mM NaCl, 25 mM imidazole, 0.05% LDAO; elution with 1 M imidazole; Western blot; empty resin as control. To be noted: both partners purified. On the technique in general: Immunoblotting shows a protein as a band on a membrane.

B1: His10-FtsKN(220), N-terminal domain of the cell division protein FtsK (amino acids 1-220) (domain or fragment, E. coli, UniProt P46889 1-220, looked up)
chain: MSQEYIEDKEVTLTKLSSGRRLLEALLILIVLFAVWLMAALLSFNPSDPSWSQTAWHEPIHNLGGMPGAWLADTLFFIFGVMAYTIPVIIVGGCWFAWRHQSSDEYIDYFAVSLRIIGVLALILTSCGLAAINADDIWYFASGGVIGSLLSTTLQPLLHSSGGTIALLCVWAAGLTLFTGWSWVTIAEKLGGWILNILTFASNRTRRDDTWVDEDEYEDD
notes: FtsK of E. coli, N-terminal membrane anchor domain, amino acids 1-220 of the 1329 amino acid protein; also called WT FtsKN; not shown: His10, N-terminal, kept
On to B1, for which the binding result was “binds”.
